Laboratory results: publication PMC4319037, “The B-type Channel Is a Major Route for Iron Entry into the Ferroxidase Center and Central Cavity of Bacterioferritin*” (The Journal of Biological Chemistry, 2014)

Target: the molecule itself
Assay: crystal structure; hanging-drop vapor diffusion; ammonium sulfate (50-80% saturated), NaCl 0.1 M, Tris HCl 20 mM pH 7.2; BFR D132F with <1 heme/24-mer; 12 monomers in the asymmetric unit; 2.0 Å

B1: E. coli bacterioferritin D132F variant (natural protein)
chain: not shown
notes: Bacterioferritin (BFR), E. coli, bfr gene in pET21a (pALN1) with D132F made by QuikChange; the model holds '12 complete monomers' in the asymmetric unit (1896 C-alpha atoms for the 12-mer, i.e. 158 per chain); Crystallised with <1 heme/24-mer, free of metal ions (apo); no tag is mentioned; also called BFR D132F; apo-D132F variant; copies: 24
- binding result: binds
